Laboratory results: US9463249B2, “Crystalline insulin-conjugates” (SmartCells, Inc., priority 2009, dated 2016)

How the values were obtained:
[1] = system: lectins; experiment: Relative lectin binding affinities of saccharide ligands (FIG. 1); conditions: four sugars shown in FIG. 1
[2] = rat, in vivo, iv
Procedure: To determine the elimination rate in the presence of elevated glucose levels, one hour before the start of the experiment one rat cannula was connected to a syringe infusion pump containing a sterile 50% w/v glucose solution. The pump infusion rate was adjusted by the experimenter to ensure that the blood glucose levels in the animal remained above 300 mg/dL at all times during the experiment. Blood glucose was measured using commercially available test strips (Precision Xtra, Abbott Laboratories, Abbott Park, Ill.). […]
(§1) Throughout the experiment, blood glucose was measured using commercially available test strips (Precision Xtra, Abbott Laboratories, Abbott Park, Ill.). Blood from each timepoint was centrifuged at 4 C to collect the serum, and serum insulin or serum conjugate concentrations were subsequently measured with a commercially available ELISA kit (Iso-Insulin ELISA, Mercodia, Uppsala, Sweden). […]
as §1

[3] = Glucose-responsive PK under constant i.v. infusion with i.p. glucose injection at 240 min; parameters: species or system Sprague-Dawley rats; conditions: rat, in vivo, iv
Procedure: In this example, the i.v. elimination rate experiment described in Example 30 was modified from a single i.v. bolus of 0.4 mg conjugate/kg body weight to a continuous i.v. infusion.
A blood sample was taken at t=0 min, after which the constant i.v. infusion was initiated.
Throughout the experiments, blood glucose was measured using commercially available test strips (Precision Xtra, Abbott Laboratories, Abbott Park, Ill.). Blood from each timepoint was centrifuged at 4 C to collect the serum, and serum insulin or serum conjugate concentrations were subsequently measured with a commercially available ELISA kit (Iso-Insulin ELISA, Mercodia, Uppsala, Sweden).

Row | Molecule | lectin binding affinity relative to the other sugars [1] | effect of sugars on elimination rate, in words [2] | hypoglycemia prior to glucose injection [3]
1 | NCCO[C@H]1O[C@H](CO[C@H]2O[C@H](CO)[C@@H](O)[C@H](O)[C@@H]2O)[C@@H](O)[C@H](O[C@H]2O[C@H](CO)[C@@H](O)[C@H](O)[C@@H]2O)[C@@H]1O [AETM, Man (α-1,3)-Man(α-1.6)-α-1-aminoethylmannopyranoside] | highest affinity of the four sugars shown | – | –
2 | RHI: recombinant human insulin (MW=5808 Da, Sigma Aldrich), unconjugated control | – | not affected in the presence of sugars | causes significant hypoglycemia prior to glucose injection
